From publication PMC9482650, “Quantitative fragmentomics allow affinity mapping of interactomes” (Nature Communications, 2022) come the findings set out here.

First the molecules themselves.
T1: APBA2_2, Q99767
T1 sequence (Q99767 654-744, limits assumed, looked up): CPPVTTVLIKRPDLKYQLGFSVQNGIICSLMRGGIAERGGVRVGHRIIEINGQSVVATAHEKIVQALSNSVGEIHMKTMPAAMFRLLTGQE

T2: ARHGAP21, Q5T5U3
T2 sequence (Q5T5U3 45-169, limits assumed, looked up): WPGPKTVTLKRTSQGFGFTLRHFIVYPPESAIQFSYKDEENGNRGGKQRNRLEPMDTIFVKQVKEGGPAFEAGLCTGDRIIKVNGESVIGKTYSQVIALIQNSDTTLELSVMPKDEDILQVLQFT

T3: DFNB31_2, Q9P202
T3 sequence (Q9P202 274-371, limits assumed, looked up): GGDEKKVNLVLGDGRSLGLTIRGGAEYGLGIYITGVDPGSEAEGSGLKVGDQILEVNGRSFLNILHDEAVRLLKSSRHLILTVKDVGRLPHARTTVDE

T4: DLG3_1, Q92796
T4 sequence (Q92796 125-227, limits assumed, looked up): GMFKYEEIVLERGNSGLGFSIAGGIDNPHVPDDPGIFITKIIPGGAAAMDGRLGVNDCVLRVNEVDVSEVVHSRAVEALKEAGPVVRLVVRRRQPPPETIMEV

T5: LIN7A, O14910
T5 sequence (O14910 103-200, limits assumed, looked up): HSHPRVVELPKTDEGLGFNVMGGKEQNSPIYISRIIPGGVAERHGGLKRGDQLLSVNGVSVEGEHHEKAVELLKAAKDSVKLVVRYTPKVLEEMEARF

T6: LRRC7, Q96NW7
T6 sequence (Q96NW7 1440-1537, limits assumed, looked up): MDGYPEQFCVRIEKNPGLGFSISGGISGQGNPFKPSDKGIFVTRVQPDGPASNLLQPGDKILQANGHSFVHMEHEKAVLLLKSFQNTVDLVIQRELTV

T7: MPDZ_10, O75970
T7 sequence (O75970 1624-1722, limits assumed, looked up): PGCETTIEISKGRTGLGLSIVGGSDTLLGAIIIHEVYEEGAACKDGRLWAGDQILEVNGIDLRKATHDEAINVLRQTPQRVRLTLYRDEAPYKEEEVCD

T8: MPDZ_12, O75970
T8 sequence (O75970 1857-1958, limits assumed, looked up): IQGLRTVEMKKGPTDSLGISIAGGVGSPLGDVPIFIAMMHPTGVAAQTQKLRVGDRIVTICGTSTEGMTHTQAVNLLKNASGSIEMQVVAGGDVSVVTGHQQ

T9: MPDZ_5, O75970
T9 sequence (O75970 695-796, limits assumed, looked up): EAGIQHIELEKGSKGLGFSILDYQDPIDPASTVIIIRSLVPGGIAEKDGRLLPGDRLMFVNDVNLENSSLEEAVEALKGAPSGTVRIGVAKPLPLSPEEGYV

T10: NHERF3_1, Q5T2W1
T10 sequence (Q5T2W1 4-100, limits assumed, looked up): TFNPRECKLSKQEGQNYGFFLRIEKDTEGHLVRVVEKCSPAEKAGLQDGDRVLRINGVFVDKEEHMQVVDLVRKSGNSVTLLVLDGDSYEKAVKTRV

T11: NHERF3_4, Q5T2W1
T11 sequence (Q5T2W1 373-468, limits assumed, looked up): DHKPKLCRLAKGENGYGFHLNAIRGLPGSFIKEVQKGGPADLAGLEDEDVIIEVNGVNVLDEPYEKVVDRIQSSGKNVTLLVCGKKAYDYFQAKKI

T12: PDZRN3_1, Q9UPQ7
T12 sequence (Q9UPQ7 244-349, limits assumed, looked up): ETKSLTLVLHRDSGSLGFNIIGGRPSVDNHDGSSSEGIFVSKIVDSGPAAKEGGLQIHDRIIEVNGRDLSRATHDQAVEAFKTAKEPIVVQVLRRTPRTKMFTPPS

T13: TX1BP3, O14907
T13 sequence (O14907 10-122, limits assumed, looked up): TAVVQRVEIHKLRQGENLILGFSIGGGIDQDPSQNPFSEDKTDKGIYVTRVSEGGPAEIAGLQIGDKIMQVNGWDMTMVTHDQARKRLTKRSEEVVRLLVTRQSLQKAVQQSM

B1: DACT1, Q9NYF0 (peptide)
chain: SGSLKLMTTV
B2: TMEM225B, P0DP42 (peptide)
chain: ETQVTAETVI

Chain of PTPN3, P26045 (P26045 505-587): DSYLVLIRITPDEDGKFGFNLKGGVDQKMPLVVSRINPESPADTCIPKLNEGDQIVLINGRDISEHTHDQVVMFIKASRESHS
Chain of HTRA1, Q92743 (Q92743 360-477): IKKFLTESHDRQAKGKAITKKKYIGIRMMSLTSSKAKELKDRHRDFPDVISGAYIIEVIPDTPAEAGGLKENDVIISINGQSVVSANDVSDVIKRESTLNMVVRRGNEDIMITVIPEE
Chain of TJP1_2, Q07157 (Q07157 181-274): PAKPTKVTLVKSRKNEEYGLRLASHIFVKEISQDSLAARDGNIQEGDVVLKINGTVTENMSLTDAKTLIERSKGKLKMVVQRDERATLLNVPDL
Chain of DLG1_2, Q12959 (Q12959 314-412): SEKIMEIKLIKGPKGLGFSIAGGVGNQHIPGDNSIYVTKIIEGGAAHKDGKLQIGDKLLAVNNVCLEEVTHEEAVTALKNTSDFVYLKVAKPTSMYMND
Chain of MAST1, Q9Y2H9 (Q9Y2H9 962-1065): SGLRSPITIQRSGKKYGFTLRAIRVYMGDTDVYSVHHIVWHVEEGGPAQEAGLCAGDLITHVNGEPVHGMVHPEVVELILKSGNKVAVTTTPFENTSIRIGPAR

One assay addresses T1, APBA2_2, Q99767. The experiment in a line: holdup assay. Details: key: below the threshold = too weak to quantify, mostly under pKd 3.1 to 4. The settings on record: plain residues with an end cap or a label only (N-terminal biotin on a linker: ado-ado).
For B1, the pKd entry was “below the threshold”.

In the case of B2, the pKd entry was “below the threshold”.

Another assay deals with T2, ARHGAP21, Q5T5U3. The experiment in a line: holdup assay. Details: key: below the threshold = too weak to quantify, mostly under pKd 3.1 to 4. To be noted: plain residues with an end cap or a label only (N-terminal biotin on a linker: ado-ado).
With B1, the pKd result is “below the threshold”.

B2: the pKd result is given as “below the threshold”.

The target in the next assay is T3, DFNB31_2, Q9P202. The experiment in a line: holdup assay. The settings on record: plain residues with an end cap or a label only (N-terminal biotin on a linker: ado-ado). More on the design: key: below the threshold = too weak to quantify, mostly under pKd 3.1 to 4.
For B1, the pKd result is reported as “below the threshold”.

Take B2: the pKd result is “below the threshold”.

Another assay has as its target DLG1_2, Q12959. The experiment in a line: holdup assay. Details: key: below the threshold = too weak to quantify, mostly under pKd 3.1 to 4. To be noted: plain residues with an end cap or a label only (N-terminal biotin on a linker: ado-ado).
B1: the pKd is 5.54.

Molecule B2 yielded a pKd of 4.37.

In another assay the target is DLG2_2, Q15700. The experiment in a line: holdup assay. The settings on record: plain residues with an end cap or a label only (N-terminal biotin on a linker: ado-ado). Details: key: below the threshold = too weak to quantify, mostly under pKd 3.1 to 4.
Molecule B1 displayed a pKd of 5.24.

Take B2: the pKd was 4.07.

The target in a further assay is DLG2_3, Q15700. The experiment in a line: holdup assay. Details: key: below the threshold = too weak to quantify, mostly under pKd 3.1 to 4. The settings on record: plain residues with an end cap or a label only (N-terminal biotin on a linker: ado-ado).
With B1, the pKd came to 4.4.

B2 displayed a pKd of 3.66.

The target of the next assay is T4, DLG3_1, Q92796. The experiment in a line: holdup assay. More on the design: key: below the threshold = too weak to quantify, mostly under pKd 3.1 to 4. To be noted: plain residues with an end cap or a label only (N-terminal biotin on a linker: ado-ado).
B1 had a negative logarithm of the Kd (pKd) of 4.45.

In the case of B2, the pKd result was “below the threshold”.

Another assay concerns the target HTRA1, Q92743. The experiment in a line: holdup assay. More on the design: key: below the threshold = too weak to quantify, mostly under pKd 3.1 to 4. To be noted: plain residues with an end cap or a label only (N-terminal biotin on a linker: ado-ado).
For the molecule B1, the pKd was 4.04.

Molecule B2 had a pKd of 4.31.

In another assay the target is IL16_3, Q14005. The experiment in a line: holdup assay. Details: key: below the threshold = too weak to quantify, mostly under pKd 3.1 to 4. The settings on record: plain residues with an end cap or a label only (N-terminal biotin on a linker: ado-ado).
Chain of IL16_3, Q14005 (Q14005 1107-1207): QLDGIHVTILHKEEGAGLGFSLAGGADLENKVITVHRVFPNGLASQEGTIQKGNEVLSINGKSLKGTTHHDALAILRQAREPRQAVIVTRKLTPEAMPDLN
As for B1, the pKd result is given as “below the threshold”.

As to B2, the negative-log Kd (pKd) entry is on record as “below the threshold”.

The target in a further assay is T5, LIN7A, O14910. The experiment in a line: holdup assay. More on the design: key: below the threshold = too weak to quantify, mostly under pKd 3.1 to 4. The settings on record: plain residues with an end cap or a label only (N-terminal biotin on a linker: ado-ado).
As for B1, the pKd is 3.68.

As for B2, the pKd result is “below the threshold”.

For a further assay, the target named is T6, LRRC7, Q96NW7. The experiment in a line: holdup assay. Details: key: below the threshold = too weak to quantify, mostly under pKd 3.1 to 4. The settings on record: plain residues with an end cap or a label only (N-terminal biotin on a linker: ado-ado).
B1: the pKd result was “below the threshold”.

Take B2: the pKd entry is “below the threshold”.

In the next assay the target is MAGI2_5, Q86UL8. The experiment in a line: holdup assay. Details: key: below the threshold = too weak to quantify, mostly under pKd 3.1 to 4. The settings on record: plain residues with an end cap or a label only (N-terminal biotin on a linker: ado-ado).
Chain of MAGI2_5, Q86UL8 (Q86UL8 915-1017): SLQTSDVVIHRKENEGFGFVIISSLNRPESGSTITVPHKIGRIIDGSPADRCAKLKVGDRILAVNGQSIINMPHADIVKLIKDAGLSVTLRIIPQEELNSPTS
B1 yielded a pKd of 4.51.

For the molecule B2, the negative-log Kd (pKd) entry is given as “below the threshold”.

Another assay has as its target MAST1, Q9Y2H9. The experiment in a line: holdup assay. Details: key: below the threshold = too weak to quantify, mostly under pKd 3.1 to 4. The settings on record: plain residues with an end cap or a label only (N-terminal biotin on a linker: ado-ado).
Regarding B1, the pKd was 3.97.

The molecule B2 gave a pKd of 4.31.

The next assay has as its target T7, MPDZ_10, O75970. The experiment in a line: holdup assay. The settings on record: plain residues with an end cap or a label only (N-terminal biotin on a linker: ado-ado). More on the design: key: below the threshold = too weak to quantify, mostly under pKd 3.1 to 4.
In the case of B1, the pKd result is “below the threshold”.

Regarding B2, the pKd entry is recorded as “below the threshold”.

For a further assay, the target named is T8, MPDZ_12, O75970. The experiment in a line: holdup assay. Details: key: below the threshold = too weak to quantify, mostly under pKd 3.1 to 4. The settings on record: plain residues with an end cap or a label only (N-terminal biotin on a linker: ado-ado).
As for B1, the pKd was determined as 3.77.

B2: the pKd result is reported as “below the threshold”.

The target of the next assay is T9, MPDZ_5, O75970. The experiment in a line: holdup assay. More on the design: key: below the threshold = too weak to quantify, mostly under pKd 3.1 to 4. The settings on record: plain residues with an end cap or a label only (N-terminal biotin on a linker: ado-ado).
In the case of B1, the pKd result was “below the threshold”.

On to B2, for which the pKd result was “below the threshold”.

The target in the next assay is T10, NHERF3_1, Q5T2W1. The experiment in a line: holdup assay. Details: key: below the threshold = too weak to quantify, mostly under pKd 3.1 to 4. The settings on record: plain residues with an end cap or a label only (N-terminal biotin on a linker: ado-ado).
In the case of B1, the pKd entry is listed as “below the threshold”.

Consider B2, for which the pKd is 4.68.

The target in the next assay is T11, NHERF3_4, Q5T2W1. The experiment in a line: holdup assay. More on the design: key: below the threshold = too weak to quantify, mostly under pKd 3.1 to 4. The settings on record: plain residues with an end cap or a label only (N-terminal biotin on a linker: ado-ado).
With B1, the pKd entry was “below the threshold”.

Take B2: the pKd result is given as “below the threshold”.

The target of another assay is NOS1, P29475. The experiment in a line: holdup assay. More on the design: key: below the threshold = too weak to quantify, mostly under pKd 3.1 to 4. The settings on record: plain residues with an end cap or a label only (N-terminal biotin on a linker: ado-ado).
Chain of NOS1, P29475 (P29475 9-101): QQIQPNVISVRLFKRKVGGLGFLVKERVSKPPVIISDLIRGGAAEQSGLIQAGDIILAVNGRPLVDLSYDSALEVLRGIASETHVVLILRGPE
As to B1, the pKd result is given as “below the threshold”.

B2 returned a pKd of 3.53.

For another assay, the target named is T12, PDZRN3_1, Q9UPQ7. The experiment in a line: holdup assay. More on the design: key: below the threshold = too weak to quantify, mostly under pKd 3.1 to 4. The settings on record: plain residues with an end cap or a label only (N-terminal biotin on a linker: ado-ado).
For the molecule B1, the pKd result was “below the threshold”.

B2: the pKd entry is “below the threshold”.

For another assay, the target named is PICK1, Q9NRD5. The experiment in a line: holdup assay. Details: key: below the threshold = too weak to quantify, mostly under pKd 3.1 to 4. To be noted: plain residues with an end cap or a label only (N-terminal biotin on a linker: ado-ado).
Chain of PICK1, Q9NRD5 (Q9NRD5 17-115): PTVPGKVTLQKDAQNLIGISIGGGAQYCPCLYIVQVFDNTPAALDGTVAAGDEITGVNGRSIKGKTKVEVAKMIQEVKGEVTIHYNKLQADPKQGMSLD
B1 displayed a pKd of 4.09.

With B2, the pKd was found to be 3.97.

The next assay concerns the target PTPN3, P26045. The experiment in a line: holdup assay. More on the design: key: below the threshold = too weak to quantify, mostly under pKd 3.1 to 4. To be noted: plain residues with an end cap or a label only (N-terminal biotin on a linker: ado-ado).
Consider B1, for which the pKd is 3.8.

Consider B2, for which the pKd was 4.59.

A further assay has as its target TJP1_2, Q07157. The experiment in a line: holdup assay. The settings on record: plain residues with an end cap or a label only (N-terminal biotin on a linker: ado-ado). Details: key: below the threshold = too weak to quantify, mostly under pKd 3.1 to 4.
In the case of B1, the pKd result is “below the threshold”.

Regarding B2, the pKd result is recorded as “below the threshold”.

Another assay concerns the target T13, TX1BP3, O14907. The experiment in a line: holdup assay. Details: key: below the threshold = too weak to quantify, mostly under pKd 3.1 to 4. To be noted: plain residues with an end cap or a label only (N-terminal biotin on a linker: ado-ado).
For B1, the negative-log Kd (pKd) worked out at 3.75.

Consider B2, for which the pKd result was “below the threshold”.
